{"source": "paper PMC6355928", "target": "Rheb (UniProt Q15382)", "assay": "co-immunoprecipitation, Western blot", "settings": "reference: USP4 wild type; sites S445", "data": [{"substance": "USP4 (from UniProt Q13107) USP4-S445A", "values": [{"measurement": "binding against the reference", "value": "weaker"}]}]}
